This is an account of results in patent publication US20240368250A1 (Ablynx, published 2024).

Numbering of substitutions follows the chain as printed.

The target in experiment [1] is T1, Human serum albumin (HSA; Sigma-Aldrich Cat No. A8763) (human, UniProt P02768 25-609). In words: SPR Biacore 8K+, HSA on CM5 chip, pH 6.0, 1:1 fit. For orientation: SPR reads the build-up and loss of mass on a sensor chip optically.
For experiment [2], the target named is T1, Human serum albumin (HSA; Sigma-Aldrich …). In words: SPR Biacore 8K+, HSA on CM5 chip, pH 7.4, 1:1 fit.
Experiment [3] has as its target T2, Mouse serum albumin (MSA; Albumin Bioscience Cat No. 2601) (mouse, UniProt P07724 25-608). The experiment can be described thus: SPR Biacore 8K+, MSA on CM5 chip, pH 6.0, 1:1 fit.
Experiment [4] addresses T2, Mouse serum albumin (MSA; Albumin …). In words: SPR Biacore 8K+, MSA on CM5 chip, pH 7.4, 1:1 fit.
Experiment [5] deals with T3, Human FcRn (biotinylated human FcRn) (human, UniProt P61769 21-119).
T3 construct: Biotinylated human FcRn captured on a Series S Sensor Chip SA; also called human neonatal Fc receptor; hFcRn
In words: SPR Biacore 8K+, biotinylated hFcRn on SA chip (~500-600 RU), pH 6.0, bivalent analyte fit.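 Note: analytes were Fc proteins binding to biotinylated human FcRn captured on a Series S streptavidin sensor chip.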

Experiment [6] concerns the target T3, Human FcRn (biotinylated human FcRn). In words: SPR Biacore 8K+, biotinylated hFcRn on SA chip (~500-600 RU), pH 6.0, bivalent analyte fit (KD1).
Experiment [7] has the same target. In words: SPR Biacore 8K+, biotinylated hFcRn on SA chip (~500-600 RU), pH 6.0, bivalent analyte fit (ka1).
Experiment [8] shares this target. In words: SPR Biacore 8K+, biotinylated hFcRn on SA chip (~500-600 RU), pH 6.0, bivalent analyte fit (kd1).
In experiment [9] the target is T1, Human serum albumin (HSA; Sigma-Aldrich …). In words: SPR Biacore 8K+, HSA on C1 chip, pH 7.4, 1:1 fit.
In experiment [10] the target is T2, Mouse serum albumin (MSA; Albumin …). In words: SPR Biacore 8K+, MSA on C1 chip, pH 7.4, 1:1 fit (off-rate only).

B1: TP016 (Fc fusion)
chain 1: DVQLVESGGGLVQPGGSLRLSCAASGLTFSTNPMYWYRQAPGKQRELVASISSRGITNYADSVKGRFTISRDNSKNTVYLQMNSLRPEDTAVYYCRLASLSSGTVYWGQGTLVTVSSDKTHTCPPCPAPEAAGGPSVFLFPPKPKDTLMASRTPEVTCVVVDVSQEDPEVQFNWYVDGVEVHNAKTKPREEQFNSTYRVVSVLTVLAQDWLNGKEYKCKVSNKGLPSSIEKTISKAKGQPREPQVYTLPPCQEEMTKNQVSLWCLVKGFYPSDIAVEWESNGQPENNYKTTPPVLDSDGSFFLYSKLTVDKSRWQEGNVFSCSVMHEALHNAYTQKSLSLSLG
chain 2: DVQLVESGGGVVQPGGSLRLSCAASGFTFRSFGMSWVRQAPGKGPEWVSSISGSGSDTLYADSVKGRFTISRDNSKNTLYLQMNSLRPEDTALYYCTIGGSLSRSSQGTLVTVSSDKTHTCPPCPAPEAAGGPSVFLFPPKPKDTLMASRTPEVTCVVVDVSQEDPEVQFNWYVDGVEVHNAKTKPREEQFNSTYRVVSVLTVLAQDWLNGKEYKCKVSNKGLPSSIEKTISKAKGQPREPQVCTLPPSQEEMTKNQVSLSCAVKGFYPSDIAVEWESNGQPENNYKTTPPVLDSDGSFFLVSKLTVDKSRWQEGNVFSCSVMHEALHNAYTQKSLSLSLG
As for B1, the Kd was found to be 3.7 nM in [1], 9.3 nM in [2], 22 nM in experiment [3] and 35 nM in [4]. The koff in experiment [1] came to 0.0004 s⁻¹; in experiment [2], 0.00057 s⁻¹; in [3], 0.0038 s⁻¹; in experiment [4] it was 0.0042 s⁻¹. Moreover, the kon in experiment [1] is 110000 M⁻¹ s⁻¹; in experiment [2] it was 61000 M⁻¹ s⁻¹; in experiment [3], 170000 M⁻¹ s⁻¹; in [4], 120000 M⁻¹ s⁻¹.

B2: TP019 (Fc fusion)
chain 1: DVQLVESGGGLVQPGGSLRLSCAASGLTFSTNPMYWYRQAPGKQRELVASISSRGITNYADSVKGRFTISRDNSKNTVYLQMNSLRPEDTAVYYCRLASLSSGTVYWGQGTLVTVSSDKTHTCPPCPAPEAAGGPSVFLFPPKPKDTLMASRTPEVTCVVVDVSQEDPEVQFNWYVDGVEVHNAKTKPREEQFNSTYRVVSVLTVLAQDWLNGKEYKCKVSNKGLPSSIEKTISKAKGQPREPQVYTLPPCQEEMTKNQVSLWCLVKGFYPSDIAVEWESNGQPENNYKTTPPVLDSDGSFFLYSKLTVDKSRWQEGNVFSCSVMHEALHNAYTQKSLSLSLGGGGGSGGGGSGGGGSGGGGSGGGGSGGGGSGGGGSEVQLVESGGGVVQPGGSLRLSCAASGFTFRSFGMSWVRQAPGKGPEWVSSISGSGSDTLYADSVKGRFTISRDNSKNTLYLQMNSLRPEDTALYYCTIGGSLSRSSQGTLVTVSS
chain 2: DKTHTCPPCPAPEAAGGPSVFLFPPKPKDTLMASRTPEVTCVVVDVSQEDPEVQFNWYVDGVEVHNAKTKPREEQFNSTYRVVSVLTVLAQDWLNGKEYKCKVSNKGLPSSIEKTISKAKGQPREPQVCTLPPSQEEMTKNQVSLSCAVKGFYPSDIAVEWESNGQPENNYKTTPPVLDSDGSFFLVSKLTVDKSRWQEGNVFSCSVMHEALHNAYTQKSLSLSLG
In the case of B2, the Kd amounted to 26 nM in [1], 51 nM in experiment [2], 50 nM in experiment [3] and 50 nM in experiment [4]. In addition, the koff stood at 0.0016 s⁻¹ in experiment [1], 0.0019 s⁻¹ in experiment [2], 0.5 s⁻¹ in experiment [3] and 0.5 s⁻¹ in experiment [4]. Besides, the kon in experiment [1] worked out at 61000 M⁻¹ s⁻¹; in experiment [2] it was 36000 M⁻¹ s⁻¹; in experiment [3] it was 1e+07 M⁻¹ s⁻¹; in experiment [4], 1e+07 M⁻¹ s⁻¹.

B3: TPP-66176 (Fc fusion)
chain: DVQLVESGGGVVQAGGSLSISCAASGGSLSNYVLGWFRQAPGKEREFVAAINWRGDITIGPPNVEGRFTISRDNAKNTGYLQMNSLAPDDTALYYCGAGTPLNPGAYIYDWSYDYWGRGTLVTVSSDKTHTCPSCPAPEAAGGPSVFLFPPKPKDTLMISRTPEVTCVVVDVSQEDPEVQFNWYVDGVEVHNAKTKPREEQFNSTYRVVSVLTVLHQDWLNGKEYKCKVSNKGLPSSIEKTISKAKGQPREPQVYTLPPSQEEMTKNQVSLTCLVKGFYPSDIAVEWESNGQPENNYKTTPPVLDSDGSFFLYSKLTVDKSRWQEGNVFSCSVMHEALHNHYTQKSLSLSLGGGGGSGGGGSGGGGSGGGGSGGGGSGGGGSGGGGSEVQLVESGGGVVQAGGSLSISCAASGGSLSNYVLGWFRQAPGKEREFVAAINWRGDITIGPPNVEGRFTISRDNAKNTGYLQMNSLAPDDTALYYCGAGTPLNPGAYIYDWSYDYWGRGTLVTVSSA
notes: Symmetrical IgG4 FALA Fc fusion without knob-in-hole mutations, four irrelevant ISVDs; control; also called symmetrical ISVD-Fc polypeptide
Regarding B3, in experiment [5], the KD2 came out at 4.53 M, the ka2 was 3.79e-05 1/RUs and the kd2 was 0.000172 s⁻¹. For the same molecule, the Kd in [6] amounted to 1260 nM. Also, the kon in experiment [7] is 62900 M⁻¹ s⁻¹. In addition, the koff in [8] is 0.0794 s⁻¹.

B4: TPP-66144 (Fc fusion)
chain 1: DVQLVESGGGVVQAGGSLSISCAASGGSLSNYVLGWFRQAPGKEREFVAAINWRGDITIGPPNVEGRFTISRDNAKNTGYLQMNSLAPDDTALYYCGAGTPLNPGAYIYDWSYDYWGRGTLVTVSSDKTHTCPPCPAPEAAGGPSVFLFPPKPKDTLMISRTPEVTCVVVDVSQEDPEVQFNWYVDGVEVHNAKTKPREEQFNSTYRVVSVLTVLHQDWLNGKEYKCKVSNKGLPSSIEKTISKAKGQPREPQVYTLPPCQEEMTKNQVSLWCLVKGFYPSDIAVEWESNGQPENNYKTTPPVLDSDGSFFLYSKLTVDKSRWQEGNVFSCSVMHEALHNHYTQKSLSLSLGGGGGSGGGSEVQLVESGGGVVQPGGSLRLSCAASGFTFRSFGMSWVRQAPGKGPEWVSSISGSGSDTLYADSVKGRFTISRDNSKNTLYLQMNSLRPEDTALYYCTIGGSLSRSSQGTLVTVSSA
chain 2: DVQLVESGGGVVQAGGSLSISCAASGGSLSNYVLGWFRQAPGKEREFVAAINWRGDITIGPPNVEGRFTISRDNAKNTGYLQMNSLAPDDTALYYCGAGTPLNPGAYIYDWSYDYWGRGTLVTVSSDKTHTCPPCPAPEAAGGPSVFLFPPKPKDTLMISRTPEVTCVVVDVSQEDPEVQFNWYVDGVEVHNAKTKPREEQFNSTYRVVSVLTVLHQDWLNGKEYKCKVSNKGLPSSIEKTISKAKGQPREPQVCTLPPSQEEMTKNQVSLSCAVKGFYPSDIAVEWESNGQPENNYKTTPPVLDSDGSFFLVSKLTVDKSRWQEGNVFSCSVMHEALHNRFTQKSLSLSLG
notes: IgG4 FALA Fc knob-in-hole, C-terminal ALB23002 via 9GS linker
B4: in experiment [9], the Kd was 51.6 nM, the koff came out at 0.00124 s⁻¹ and the kon turned out to be 24000 M⁻¹ s⁻¹. Moreover, in [10], the koff is 0.0842 s⁻¹. Moreover, in experiment [5], the KD2 is 2.86 M, the ka2 was 0.017 1/RUs and the kd2 was 0.0485 s⁻¹. In [6], this molecule displayed a Kd of 103 nM. Also, the kon in [7] is 808000 M⁻¹ s⁻¹. In experiment [8], the koff came to 0.0834 s⁻¹.

B5: TPP-66147 (Fc fusion)
chain 1: DVQLVESGGGVVQAGGSLSISCAASGGSLSNYVLGWFRQAPGKEREFVAAINWRGDITIGPPNVEGRFTISRDNAKNTGYLQMNSLAPDDTALYYCGAGTPLNPGAYIYDWSYDYWGRGTLVTVSSDKTHTCPPCPAPEAAGGPSVFLFPPKPKDTLMISRTPEVTCVVVDVSQEDPEVQFNWYVDGVEVHNAKTKPREEQFNSTYRVVSVLTVLHQDWLNGKEYKCKVSNKGLPSSIEKTISKAKGQPREPQVYTLPPCQEEMTKNQVSLWCLVKGFYPSDIAVEWESNGQPENNYKTTPPVLDSDGSFFLYSKLTVDKSRWQEGNVFSCSVMHEALHNHYTQKSLSLSLGGGGGSGGGGSGGGGSGGGGSGGGGSGGGGSGGGGSEVQLVESGGGVVQPGGSLRLSCAASGFTFRSFGMSWVRQAPGKGPEWVSSISGSGSDTLYADSVKGRFTISRDNSKNTLYLQMNSLRPEDTALYYCTIGGSLSRSSQGTLVTVSSA
chain 2: B4 chain 2
notes: IgG4 FALA Fc knob-in-hole, C-terminal ALB23002 via 35GS
In experiment [9], B5 returned a Kd of 27.1 nM, a koff of 0.00119 s⁻¹ and a kon of 43800 M⁻¹ s⁻¹. The molecule further had a koff in experiment [10] of 0.075 s⁻¹. Besides, in [5], the KD2 was determined as 3.17 M, the ka2 was 3.3e-05 1/RUs and the kd2 was 0.000105 s⁻¹. Also, the Kd in [6] was 1060 nM. The molecule also registered a kon in [7] of 101000 M⁻¹ s⁻¹. In addition, the koff in experiment [8] is 0.107 s⁻¹.

B6: TPP-66152 (Fc fusion)
chain 1: B4 chain 2 with C255Y, S260C, S272W, A274L, V313Y, R341H, F342Y
chain 2: DVQLVESGGGVVQAGGSLSISCAASGGSLSNYVLGWFRQAPGKEREFVAAINWRGDITIGPPNVEGRFTISRDNAKNTGYLQMNSLAPDDTALYYCGAGTPLNPGAYIYDWSYDYWGRGTLVTVSSDKTHTCPPCPAPEAAGGPSVFLFPPKPKDTLMISRTPEVTCVVVDVSQEDPEVQFNWYVDGVEVHNAKTKPREEQFNSTYRVVSVLTVLHQDWLNGKEYKCKVSNKGLPSSIEKTISKAKGQPREPQVCTLPPSQEEMTKNQVSLSCAVKGFYPSDIAVEWESNGQPENNYKTTPPVLDSDGSFFLVSKLTVDKSRWQEGNVFSCSVMHEALHNRFTQKSLSLSLGGGGGSGGGGSGGGGSGGGGSGGGGSGGGGSGGGGSLKEAKEKAIEELKKAGITSDYYFDLINKAKTVEGVNALKDEILKA
notes: IgG4 FALA Fc knob-in-hole, C-terminal ABD via 35GS on chain 2
B6: the Kd in experiment [9] was 2.24 nM; in [6], 1860 nM. For the same molecule, the koff in [9] came out at 0.000201 s⁻¹; in experiment [10], 0.00111 s⁻¹; in [8], 0.107 s⁻¹. The figures for the association rate constant (kon) in experiment [9] and in experiment [7] were 89500 M⁻¹ s⁻¹ and 57500 M⁻¹ s⁻¹, respectively.

As usually defined, the koff is the first-order rate constant of dissociation. A higher koff goes with fast dissociation. For orientation: kon means a measure of how fast the partners come together. A lower kon goes with slower complex formation.
